Here are results for three molecules from PMC10397247.

The target of one assay is T1, 4H741-bH.
T1 chain: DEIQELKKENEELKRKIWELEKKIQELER
In words: two-hybrid library CCNG1.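 Further: natural log of median RNA to DNA barcode read ratio; higher means stronger binding.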

Another assay has as its target T2, 4H492-bH.
T2 chain: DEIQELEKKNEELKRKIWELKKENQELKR
As to the kind of experiment: two-hybrid library CCNG1.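 Further: natural log of median RNA to DNA barcode read ratio; higher means stronger binding.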

The target of another assay is T3, 4H40-bH.
T3 chain: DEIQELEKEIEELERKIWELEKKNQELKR
As to the kind of experiment: two-hybrid library CCNG1.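 Further: natural log of median RNA to DNA barcode read ratio; higher means stronger binding.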

For another assay, the target named is T4, 4H477-bH.
T4 chain: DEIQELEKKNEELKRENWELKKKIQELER
As to the kind of experiment: two-hybrid library CCNG1.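 Further: natural log of median RNA to DNA barcode read ratio; higher means stronger binding.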

Another assay addresses T5, 4H462-bN.
T5 chain: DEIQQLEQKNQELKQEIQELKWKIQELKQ
As to the kind of experiment: two-hybrid library CCNG1.

The target of a further assay is T6, 4H883-bN.
T6 chain: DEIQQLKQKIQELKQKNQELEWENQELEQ
As to the kind of experiment: two-hybrid library CCNG1.

The target of another assay is T7, 4H607-bN.
T7 chain: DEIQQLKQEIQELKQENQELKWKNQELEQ
As to the kind of experiment: two-hybrid library CCNG1.

Another assay addresses T8, 4H967-bN.
T8 chain: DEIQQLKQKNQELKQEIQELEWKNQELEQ
In words: two-hybrid library CCNG1.

For a further assay, the target named is T9, 4H918-bN.
T9 chain: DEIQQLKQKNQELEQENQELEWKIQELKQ
In words: two-hybrid library CCNG1.

In another assay the target is T10, 4H953-bN.
T10 chain: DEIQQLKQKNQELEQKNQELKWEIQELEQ
As to the kind of experiment: two-hybrid library CCNG1.

The next assay deals with T11, 4H687-bN.
T11 chain: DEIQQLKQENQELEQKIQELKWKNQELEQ
In words: two-hybrid library CCNG1.

The target of a further assay is T12, 4H568-bN.
T12 chain: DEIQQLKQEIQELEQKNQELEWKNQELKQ
In words: two-hybrid library CCNG1.

The next assay has as its target T13, 4H797-bN.
T13 chain: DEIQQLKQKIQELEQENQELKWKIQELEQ
As to the kind of experiment: two-hybrid library CCNG1.

For another assay, the target named is T14, 4H72-bN.
T14 chain: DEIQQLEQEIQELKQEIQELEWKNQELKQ
In words: two-hybrid library CCNG1.

The next assay deals with T15, 4H2949-AA.
T15 chain: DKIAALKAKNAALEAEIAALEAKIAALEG
In words: two-hybrid library CCmax. Particulars: mean of both orientations.

A further assay has as its target T16, 4H3427-AA.
T16 chain: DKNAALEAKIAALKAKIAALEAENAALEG
As to the kind of experiment: two-hybrid library CCmax. Particulars: mean of both orientations.

The next assay deals with T17, 4H342-AA.
T17 chain: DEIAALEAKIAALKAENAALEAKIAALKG
In words: two-hybrid library CCmax. As to conditions: mean of both orientations.

The next assay concerns the target T18, 4H678-AA.
T18 chain: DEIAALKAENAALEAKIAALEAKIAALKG
As to the kind of experiment: two-hybrid library CCmax. Particulars: mean of both orientations.

Another assay addresses T19, 4H3112-AA.
T19 chain: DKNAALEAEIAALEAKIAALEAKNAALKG
As to the kind of experiment: two-hybrid library CCmax. As to conditions: mean of both orientations.

For another assay, the target named is T20, 4H2617-AA.
T20 chain: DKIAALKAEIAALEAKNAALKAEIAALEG
As to the kind of experiment: two-hybrid library CCmax. As to conditions: mean of both orientations.

The next assay concerns the target T21, 4H993-AA.
T21 chain: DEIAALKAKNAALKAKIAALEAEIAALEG
As to the kind of experiment: two-hybrid library CCmax. As to conditions: mean of both orientations.

The target in a further assay is T22, 4H566-AA.
T22 chain: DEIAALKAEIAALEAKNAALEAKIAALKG
In words: two-hybrid library CCmax. Particulars: mean of both orientations.

For a further assay, the target named is T23, 4H780-AA.
T23 chain: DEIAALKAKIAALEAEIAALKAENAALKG
In words: two-hybrid library CCmax. Particulars: mean of both orientations.

In another assay the target is T24, 4H2505-AA.
T24 chain: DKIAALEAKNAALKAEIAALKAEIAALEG
As to the kind of experiment: two-hybrid library CCmax. Particulars: mean of both orientations.

Another assay deals with T25, 4H3921-AA.
T25 chain: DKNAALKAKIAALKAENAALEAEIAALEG
As to the kind of experiment: two-hybrid library CCmax. Particulars: mean of both orientations.

The target in another assay is T26, 4H3655-AA.
T26 chain: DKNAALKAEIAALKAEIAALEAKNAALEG
As to the kind of experiment: two-hybrid library CCmax. Particulars: mean of both orientations.

The next assay has as its target T27, 4H317-AA.
T27 chain: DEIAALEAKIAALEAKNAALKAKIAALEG
In words: two-hybrid library CCmax. As to conditions: mean of both orientations.

The next assay concerns the target T28, 4H906-AA.
T28 chain: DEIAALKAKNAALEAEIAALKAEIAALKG
In words: two-hybrid library CCmax. As to conditions: mean of both orientations.

The next assay concerns the target T29, 4H605-AA.
T29 chain: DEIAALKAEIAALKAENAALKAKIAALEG
As to the kind of experiment: two-hybrid library CCmax. Particulars: mean of both orientations.

A further assay concerns the target T30, 4H2729-AA.
T30 chain: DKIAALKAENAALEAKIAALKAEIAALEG
In words: two-hybrid library CCmax. As to conditions: mean of both orientations.

A further assay concerns the target T31, 4H2575-AA.
T31 chain: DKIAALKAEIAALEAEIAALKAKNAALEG
In words: two-hybrid library CCmax. As to conditions: mean of both orientations.

In the next assay the target is T32, 4H3844-AA.
T32 chain: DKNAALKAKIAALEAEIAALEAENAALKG
In words: two-hybrid library CCmax. As to conditions: mean of both orientations.

The target of the next assay is T33, 4H2883-AA.
T33 chain: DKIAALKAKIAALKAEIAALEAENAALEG
In words: two-hybrid library CCmax. As to conditions: mean of both orientations.

The next assay has as its target T34, 4H3606-AA.
T34 chain: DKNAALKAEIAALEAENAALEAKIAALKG
As to the kind of experiment: two-hybrid library CCmax. Particulars: mean of both orientations.

The target in another assay is T35, 4H2754-AA.
T35 chain: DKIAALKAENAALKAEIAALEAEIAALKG
As to the kind of experiment: two-hybrid library CCmax. As to conditions: mean of both orientations.

Another assay deals with T36, 4H2642-AA.
T36 chain: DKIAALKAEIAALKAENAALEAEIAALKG
As to the kind of experiment: two-hybrid library CCmax. Particulars: mean of both orientations.

In the next assay the target is T37, 4H48-AA.
T37 chain: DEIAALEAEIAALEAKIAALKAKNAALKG
As to the kind of experiment: two-hybrid library CCmax. As to conditions: mean of both orientations.

Another assay concerns the target T38, 4H881-AA.
T38 chain: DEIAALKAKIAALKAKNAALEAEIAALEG
In words: two-hybrid library CCmax. As to conditions: mean of both orientations.

The next assay concerns the target T39, 4H717-AA.
T39 chain: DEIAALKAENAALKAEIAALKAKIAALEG
As to the kind of experiment: two-hybrid library CCmax. As to conditions: mean of both orientations.

Another assay addresses T40, 4H335-AA.
T40 chain: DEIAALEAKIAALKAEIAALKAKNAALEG
As to the kind of experiment: two-hybrid library CCmax. As to conditions: mean of both orientations.

Another assay concerns the target T41, 4H429-AA.
T41 chain: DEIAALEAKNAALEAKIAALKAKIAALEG
In words: two-hybrid library CCmax. Particulars: mean of both orientations.

The next assay deals with T42, 4H2466-AA.
T42 chain: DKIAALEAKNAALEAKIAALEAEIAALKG
In words: two-hybrid library CCmax. Particulars: mean of both orientations.

In a further assay the target is T43, 4H3627-AA.
T43 chain: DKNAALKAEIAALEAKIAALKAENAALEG
As to the kind of experiment: two-hybrid library CCmax. Particulars: mean of both orientations.

The next assay deals with T44, 4H454-AA.
T44 chain: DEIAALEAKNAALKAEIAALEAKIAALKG
In words: two-hybrid library CCmax. Particulars: mean of both orientations.

A further assay concerns the target T45, 4H3343-AA.
T45 chain: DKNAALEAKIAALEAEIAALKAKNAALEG
In words: two-hybrid library CCmax. As to conditions: mean of both orientations.

For the next assay, the target named is T46, 4H794-AA.
T46 chain: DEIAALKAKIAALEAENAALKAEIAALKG
In words: two-hybrid library CCmax. As to conditions: mean of both orientations.

The target of a further assay is T47, 4H2837-AA.
T47 chain: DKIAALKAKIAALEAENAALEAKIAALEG
As to the kind of experiment: two-hybrid library CCmax. Particulars: mean of both orientations.

Another assay addresses T48, 4H2944-AA.
T48 chain: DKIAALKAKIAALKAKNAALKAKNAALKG
As to the kind of experiment: two-hybrid library CCmax. As to conditions: mean of both orientations.

With DEIQELEKEIEELERKIWELEKKNQELKR [4H40-bH], the interaction score is 0.646 with 4H741-bH, 0.0489 with 4H492-bH, -0.0343 with 4H40-bH and -0.00296 with 4H477-bH.
For DEIQQLEQKNQELKQEIQELKWKIQELKQ [4H462-bN], the interaction score was -0.578 with 4H462-bN; -1.4 with 4H883-bN; 0.42 with 4H607-bN; -0.954 in the assay with 4H967-bN; -1.19 with 4H918-bN; -0.25 in the assay with 4H953-bN. In addition, the interaction score with 4H687-bN was -0.147; with 4H568-bN it was 0.685; with 4H797-bN it was -0.297; with 4H72-bN, -0.825.
In the case of DKIAALEAKIAALKAENAALKAEIAALEG [4H2393-AA], the interaction score in the assay with 4H2949-AA was 1.51; in the assay with 4H3427-AA, -1.45; in the assay with 4H342-AA, 2.37; with 4H678-AA it was -0.574; in the assay with 4H3112-AA, -1.21; with 4H2617-AA, 1.93. In addition, the interaction score in the assay with 4H993-AA is -1.5; in the assay with 4H566-AA, 1.33; in the assay with 4H780-AA, -1.42; with 4H2505-AA, -1.59; in the assay with 4H3921-AA, -1.77; in the assay with 4H3655-AA, -1.41. Moreover, the interaction score is 1.92 with 4H317-AA; -1.04 with 4H906-AA; 0.852 with 4H605-AA; -0.695 with 4H2729-AA; -1.03 with 4H2575-AA; 1.55 with 4H3844-AA. The interaction score was -1.21 with 4H2883-AA; 2.32 with 4H3606-AA; -1.23 with 4H2754-AA; 1.82 with 4H2642-AA; -0.193 with 4H48-AA; -1 with 4H881-AA. Further, the interaction score with 4H717-AA was -1.55; with 4H335-AA, -1.56; with 4H429-AA, -1.55; with 4H2466-AA, 0.221; with 4H3627-AA, -1.42; with 4H454-AA, -0.951. Further, the interaction score in the assay with 4H3343-AA is -1.29; in the assay with 4H794-AA it was 1.33; in the assay with 4H2837-AA, 1.73; with 4H2944-AA, -0.902.
